Experimental data taken from patent USRE50957E1, “Molecular rheostat for cofactor balance” (The Regents of the University of California, priority 2016, dated 2026).

Experiments:
[1] = substrate: NC(=O)c1ccc[n+]([C@@H]2O[C@H](COP(=O)([O-])OP(=O)(O)OC[C@H]3O[C@@H](n4cnc5c(N)ncnc54)[C@H](OP(=O)(O)O)[C@@H]3O)[C@@H](O)[C@H]2O)c1; assay: purified protein, by the assay type; settings: other: gapDH WT, cofactor, 50 mM tris pH 7.5, 340 nm
[2] = substrate: NC(=O)c1ccc[n+]([C@@H]2O[C@H](COP(=O)([O-])OP(=O)(O)OC[C@H]3O[C@@H](n4cnc5c(N)ncnc54)[C@H](OP(=O)(O)O)[C@@H]3O)[C@@H](O)[C@H]2O)c1; assay: Kinetics and cofactor specificity of triple mutant mGap (mGapDH); format: biochemical, G. stearothermophilus ATCC12980; settings: other: mGapDH, cofactor, 50 mM tris pH 7.5, 340 nm
Protocol: Enzyme activity and optimization. All of the enzymes used in this work were assayed. The enzymes were assayed in 50 mM tris buffer pH 7.5, 5 mM MgCl, and 5 mM KCl which mirrors the final reaction conditions. The activity of NAD(P)H producing or consuming reactions were monitored at 340 nm. The activity of ATP consuming enzymes were monitored using a coupled assay with Zwf and NADP^+ at 340 nm.
To implement the “molecular rheostat” module, GapDH enzyme was engineered that efficiently uses NADP^+. […] Although the cofactor specificity of GsGap has adjusted before by sequence-based design, the mutant only slightly preferred NADP^+ over NAD^+. To more strongly flip the cofactor specificity of GsGap the crystal structure was examined and basic residues introduced into the loop region proximate to the 2′OH of NAD′ that may help stabilize binding of a 2′ phosphate in NADP^+. A series of mutations were made altering residues D34, L35, and T36 of SEQ ID NO:6. The kinetics and specificity of the best enzyme, a D34A/L35R/T36K triple mutant (herein referred to as mGap), were obtained.

B1: G. stearothermophilus glyceraldehyde-3-phosphate dehydrogenase (GsGap, gapDH WT), wild type, SEQ ID NO:6 (Geobacillus stearothermophilus) (protein)
chain: MAVKVGINGFGRIGRNVFRAALKNPDIEVVAVNDLTDANTLAHLLKYDSVHGRLDAEVSVNGNNLVVNGKEIIVKAERDPENLAWGEIGVDIVVESTGRFTKREDAAKHLEAGAKKVIISAPAKNEDITIVMGVNQDKYDPKAHHVISNASCTTNCLAPFAKVLHEQFGIVRGMMTTVHSYTNDQRILDLPHKDLRRARAAAESIIPTTTGAAKAVALVLPELKGKLNGMAMRVPTPNVSVVDLVAELEKEVTVEEVNAALKAAAEGELKGILAYSEEPLVSRDYNGSTVSSTIDALSTMVIDGKMVKVVSWYDNETGYSHRVVDLAAYIASKGL
B1 gave a Km [1] of 1500 ± 500 µM.

B2: G. stearothermophilus glyceraldehyde-3-phosphate dehydrogenase (GsGap) mutant mGapDH (mGap, gapDH M6), D34A/L35R/T36K relative to SEQ ID NO:6 (Geobacillus … (protein)
chain: MAVKVGINGFGRIGRNVFRAALKNPDIEVVAVNARKDANTLAHLLKYDSVHGRLDAEVSVNGNNLVVNGKEIIVKAERDPENLAWGEIGVDIVVESTGRFTKREDAAKHLEAGAKKVIISAPAKNEDITIVMGVNQDKYDPKAHHVISNASCTTNCLAPFAKVLHEQFGIVRGMMTTVHSYTNDQRILDLPHKDLRRARAAAESIIPTTTGAAKAVALVLPELKGKLNGMAMRVPTPNVSVVDLVAELEKEVTVEEVNAALKAAAEGELKGILAYSEEPLVSRDYNGSTVSSTIDALSTMVIDGKMVKVVSWYDNETGYSHRVVDLAAYIASKGL
Work on B2 yielded a Km [2] of 300 ± 40 µM.
